Laboratory results: patent publication US20230391845A1, “GLP-1, GIP AND GLUCAGON RECEPTOR TRIPLE AGONISTS” (priority 2020, published 2023)
Where no end group is shown, it is not given here. [ ]: non-standard residue; d: D form. Aib = CC(C)(N)C(=O)O

T1: human glucose-dependent insulinotropic polypeptide receptor (human, UniProt P48546 22-466)
T1 sequence (looked up): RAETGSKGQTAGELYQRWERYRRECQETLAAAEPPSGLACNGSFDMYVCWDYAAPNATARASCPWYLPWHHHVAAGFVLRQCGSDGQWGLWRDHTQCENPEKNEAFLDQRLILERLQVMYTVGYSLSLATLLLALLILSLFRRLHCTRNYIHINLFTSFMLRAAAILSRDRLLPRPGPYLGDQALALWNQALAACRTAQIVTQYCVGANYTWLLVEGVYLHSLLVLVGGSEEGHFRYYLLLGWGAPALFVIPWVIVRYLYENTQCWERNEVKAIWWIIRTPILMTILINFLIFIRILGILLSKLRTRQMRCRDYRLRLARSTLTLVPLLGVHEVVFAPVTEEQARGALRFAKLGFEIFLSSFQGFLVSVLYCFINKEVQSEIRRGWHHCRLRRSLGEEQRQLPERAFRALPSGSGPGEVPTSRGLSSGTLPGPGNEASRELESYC

B1: Compound No. 56 (peptide)
peptide: H[Aib]HGTFTSDYSILLEKQAAHEFVQWLLEGGPSSGAPPPS-OH
modifications: not fully specified (residue 16); printed as H-Aib-HGTFTSDYSILLE-K[(2S)-2-amino-6-[[(2S)-2-amino-6-[[(4S)-4-carboxy-4-(17-carboxyheptadecanoylamino)butanoyl]amino]hexanoyl]amino]hexanoyl]-QAAHEFVQWLLEGGPSSGAPPPS-OH
B2: Compound No. 6 (peptide)
peptide: Y[Aib]QGTFTSDYSIYLDKQAA[Aib]EFVNWLLAGGPSSGAPPPS-NH2
modifications: not fully specified (residue 16); printed as Y-Aib-QGTFTSDYSIYLD-K[2-[2-[2-[[2-[2-[2-[[(4S)-4-carboxy-4-[[4-[(19-carboxynonadecanoylamino) methyl]cyclohexanecarbonyl]amino]butanoyl]amino]ethoxy ]ethoxy]acetyl]amino]ethoxy]ethoxy]acetyl]-QAA-Aib-EFVNWLLAGGPSSGAPPPS-NH2
B3: Compound No. 53 (peptide)
peptide: H[Aib]HGTFTSDYSILLEKQAAQEFVQWLLEGGPSSGAPPPS-OH
modifications: not fully specified (residue 16); printed as H-Aib-HGTFTSDYSILLE-K[(2S)-2-amino-6-[[(2S)-2-amino-6-[[(4S)-4-carboxy-4-(19-carboxynonadecanoylamino)butanoyl]amino]hexanoyl]amino]hexanoyl]-QAAQEFVQWLLEGGPSSGAPPPS-OH
B4: Compound No. 10 (peptide)
peptide: Y[Aib]QGTFTSDYSIYLDKKAA[Aib]EFVNWLLAGGPSSGAPPPS-NH2
modifications: not fully specified (residue 17); printed as Y-Aib-QGTFTSDYSIYLDK-K[2-[2-[2-[[2-[2-[2-[[(4S)-4-carboxy-4-[[4-[(19-carboxynonadecanoylamino)methyl]cyclohexanecarbonyl]amino]butanoyl]amino]ethoxy]ethoxy]acetyl]amino]ethoxy]ethoxy]acetyl]-AA-Aib-EFVNWLLAGGPSSGAPPPS-NH2
B5: Compound No. 55 (peptide)
peptide: H[Aib]HGTFTSDYSILLEKQAAREFVQWLLEGGPSSGAPPPS-OH
modifications: not fully specified (residue 16); printed as H-Aib-HGTFTSDYSILLE-K[(2S)-2-amino-6-[[(2S)-2-amino-6-[[(4S)-4-carboxy-4-(19-carboxynonadecanoylamino)butanoyl]amino]hexanoyl]amino]hexanoyl]-QAAREFVQWLLEGGPSSGAPPPS-OH
B6: Compound No. 4 (peptide)
peptide: Y[Aib]QGTFTSDYSIYLDKQAA[Aib]KFVQWLLEGGPSSGAPPPS-NH2
modifications: not fully specified (residue 21); printed as Y-Aib-QGTFTSDYSIYLDKQAA-Aib-K[2-[2-[2-[[2-[2-[2-[[(4S)-4-carboxy-4-(17-carboxyheptadecanoylamino)butanoyl]amino]ethoxy]ethoxy]acetyl]amino]ethoxy]ethoxy]acetyl]-FVQWLLEGGPSSGAPPPS-NH2
B7: Compound No. 13 (peptide)
peptide: Y[Aib]QGTFTSDYSIYLEKQAA[Aib]EFVNWLLAGGPSSGAPPPS-NH2
modifications: not fully specified (residue 16); printed as Y-Aib-QGTFTSDYSIYLE-K[(2S)-2-amino-6-[[(2S)-2-amino-6-[[(4S)-4-carboxy-4-[[4-[(19-carboxynonadecanoylamino)methyl]cyclohexanecarbonyl]amino]butanoyl]amino]hexanoyl]amino]hexanoyl]-QAA-Aib-EFVNWLLAGGPSSGAPPPS-NH2
B8: Compound No. 52 (peptide)
peptide: H[Aib]HGTFTSDYSILLEKQAAQEFVQWLLEGGPSSGAPPPS-OH
modifications: not fully specified (residue 16); printed as H-Aib-HGTFTSDYSILLE-K[(2S)-2-amino-6-[[(2S)-2-amino-6-[[(4S)-4-carboxy-4-(17-carboxyheptadecanoylamino)butanoyl]amino]hexanoyl]amino]hexanoyl]-QAAQEFVQWLLEGGPSSGAPPPS-OH
B9: Compound No. 8 (peptide)
peptide: Y[Aib]QGTFTSDYSIYLDKQAA[Aib]KFVQWLLEGGPSSGAPPPS-NH2
modifications: not fully specified (residue 21); printed as Y-Aib-QGTFTSDYSIYLDKQAA-Aib-K[2-[2-[2-[[2-[2-[2-[[(4S)-4-carboxy-4-[[4-[(19-carboxynonadecanoylamino)methyl]cyclohexanecarbonyl]amino]butanoyl]amino]ethoxy]ethoxy]acetyl]amino]ethoxy]ethoxy]acetyl]-FVQWLLEGGPSSGAPPPS-NH2
B10: Compound No. 7 (peptide)
peptide: Y[Aib]QGTFTSDYSIYLDKQAA[Aib]KFVQWLLEGGPSSGAPPPS-NH2
modifications: not fully specified (residue 21); printed as Y-Aib-QGTFTSDYSIYLDKQAA-Aib-K[2-[2-[2-[[2-[2-[2-11(4S)-4-carboxy-4-(19-carboxynonadecanoylamino)butanoyl]amino]ethoxy]ethoxy]acetyl]amino]ethoxy]ethoxy]acetyl]-FVQWLLEGGPSSGAPPPS-NH2
B11: Compound No. 12 (peptide)
peptide: Y[Aib]QGTFTSDYSIYLEKQAA[Aib]EFVNWLLAGGPSSGAPPPS-NH2
modifications: not fully specified (residue 16); printed as Y-Aib-QGTFTSDYSIYLE-K[2-[2-[2-[[2-[2-[2-[[(4S)-4-carboxy-4-[[4-[(19-carboxynonadecanoylamino)methyl]cyclohexanecarbonyl]amino]butanoyl]amino]ethoxy]ethoxy]acetyl]amino]ethoxy]ethoxy]acetyl]-QAA-Aib-EFVNWLLAGGPSSGAPPPS-NH2
B12: Compound No. 5 (peptide)
peptide: Y[Aib]QGTFTSDYSIYLDKQAA[Aib]EFVNWLLAGGPSSGAPPPS-NH2
modifications: not fully specified (residue 16); printed as Y-Aib-QGTFTSDYSIYLD-K[2-[2-[2-[2-[2-[2-[[[(4S)-4-carboxy-4-(19-carboxynonadecanoylamino) butanoyl]amino]ethoxy]ethoxy]acetyl]amino]ethoxy]ethoxy]acetyl]-QAA-Aib-EFVNWLLAGGPSSGAPPPS-NH2
B13: Compound No. 54 (peptide)
peptide: H[Aib]HGTFTSDYSILLEKQAAREFVQWLLEGGPSSGAPPPS-OH
modifications: not fully specified (residue 16); printed as H-Aib-HGTFTSDYSILLE-K[(2S)-2-amino-6-[[(2S)-2-amino-6-[[(4S)-4-carboxy-4-(17-carboxyheptadecanoylamino)butanoyl]amino]hexanoyl]amino]hexanoyl]-QAAREFVQWLLEGGPSSGAPPPS-OH
B14: Compound No. 9 (peptide)
peptide: Y[Aib]QGTFTSDYSIYLDKKAA[Aib]EFVNWLLAGGPSSGAPPPS-NH2
modifications: not fully specified (residue 17); printed as Y-Aib-QGTFTSDYSIYLDK-K[2-[2-[2-[[2-[2-[2-[[(4S)-4-carboxy-4-(19-carboxynonadecanoylamino)butanoyl]amino]ethoxy]ethoxy]acetyl]amino]ethoxy]ethoxy]acetyl]-AA-Aib-EFVNWLLAGGPSSGAPPPS-NH2

Target: human glucagon-like peptide 1 receptor (human, UniProt P43220 24-463)
Test: cell-based or functional assay

Binder	hGLP-1R CRE Luc EC50 (pM)
B1	1.1
B2	5.1
B3	2.7
B4	4.7
B5	2
B6	9.4
B7	2.8
B8	0.8
B9	12.1
B10	8.2
B11	2.4
B12	7.2
B13	1.5
Y[Aib]QGTFTSDYSIYLEKQAA[Aib]KFVQWLLEGGPSSGAPPPS-NH2 (not fully specified (residue 21)) [Compound No. 11]	4.3
B14	4.4

Target: T1, human glucose-dependent insulinotropic …
Test: cell-based or functional assay

Binder	hGIPR CRE Luc EC50 (pM)
B1	2.3
B2	7.7
B3	4.8
B4	27.6
B5	7.5
B6	60.3
B7	2.1
B8	6.6
B9	45.5
B10	65.5
B11	1.8
B12	20.6
B13	28
Y[Aib]QGTFTSDYSIYLEKQAA[Aib]KFVQWLLEGGPSSGAPPPS-NH2 (not fully specified (residue 21)) [Compound No. 11]	7.9
B14	48.6

Target: human glucagon receptor (human, UniProt P47871 26-477)
Test: cell-based or functional assay

human glucagon receptor, sequence (P47871 26-477): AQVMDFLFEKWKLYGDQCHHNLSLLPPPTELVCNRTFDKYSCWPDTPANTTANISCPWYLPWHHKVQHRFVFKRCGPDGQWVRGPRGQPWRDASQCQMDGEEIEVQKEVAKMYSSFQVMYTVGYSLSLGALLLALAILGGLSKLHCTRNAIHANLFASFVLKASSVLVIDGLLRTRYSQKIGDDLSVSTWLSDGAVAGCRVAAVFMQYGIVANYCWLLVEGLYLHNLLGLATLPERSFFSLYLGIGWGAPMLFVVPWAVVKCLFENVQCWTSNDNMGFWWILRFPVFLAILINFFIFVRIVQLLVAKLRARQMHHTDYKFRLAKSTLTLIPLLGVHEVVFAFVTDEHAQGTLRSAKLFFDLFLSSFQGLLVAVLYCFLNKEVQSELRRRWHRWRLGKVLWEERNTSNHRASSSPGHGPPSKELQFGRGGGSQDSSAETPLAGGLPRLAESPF

Binder	hGcgR CRE Luc EC50 (pM)
B1	6.4
B2	216
B3	22
B4	250
B5	18.8
B6	31.4
B7	157
B8	14.9
B9	91.9
B10	61.3
B11	239
B12	205
B13	22.8
Y[Aib]QGTFTSDYSIYLEKQAA[Aib]KFVQWLLEGGPSSGAPPPS-NH2 (not fully specified (residue 21)) [Compound No. 11]	129
B14	116
